# Assay results from the supplement of paper PMC9170038.
# Tested on: MS2 coat protein
# Experiment: apparent KD of MS2 coat protein, switch OFF state (with FMN for OFF switches, without FMN for ON switches); designed switch direction (-1 OFF switch, 1 ON switch): -1; higher = weaker reporter binding
# Settings: FMN input: 0 or 200 uM; Eterna round: R93 (includes R88 designs)
# Procedure, shortened: (§1)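 Designed RNA switches were transcribed on-chip from Illumina sequencing clusters. SNAP-549-labelled MS2 coat protein was titrated onto them in twofold steps from 0.7 or 1.5 nM to 3 µM in 100 mM Tris-HCl pH 7.5, 80 mM KCl, 4 mM MgCl2, either without or with constant ligand. Apparent KD reflects the per-design median of normalised cluster binding-curve fits.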
row,Sequence,apparent KD of MS2 coat protein [nM]
1,AAAGCUGAAGGAUAUACUUGGAAAAAAAAAAAAAAAAAAAAACAUGAGGAUCACCCAUGUAGAAGGUCAGAUAA [Mat - Mod],36.7
2,"GAACACGGAGGAUAUACAUGAGGAUCACCCAUGUUGAUCCUCAUUAAAAUUGAUAAAUGUAGAAGGCCGUGAUA [Exclusion 3.11 (a Vinnie Mod, FMN+ favored more)]",21.2
3,AUCUAGUCAGGAUAUGACUACAUAAAAAAUAAAAAAUGUAGUCAGAAGGGACAUGAGGAUCACCCAUGUACUAA [Mat - Exclusion 4 - Eli mod - D95],29.3
4,AAAAAACAUGAGGAUCACCCAUGUAAGGAUAUCUAAAAUAAAAGAAAAAUAAAGAAAAGGAGAAGGUACAAGGA [JL wbt mod 25],32.6
5,AAAACACAUGAGGAUCACCCAUGUGAGGAUAUGCAAAACCCAUAUAAAAAGGGAAAAAGCAGAAGGCACAAAAA [wbt round 1 mod 12],27.8
6,AAAGGGUCAGGAUAUCGAUGAAUAAUAAAACAAAGGAACAUCGAGAAGGGACAUGAGGAUCACCCAUGUAUAAC [May 80],48.4
7,"AAAAAACAUGAGGAUCACCCAUGUAAGGAUAUGCUGAAAAAACACUGGAAACAGUGCAGCAGAAGGUACAAAAA [66%, Wbt, 35]",27.2
8,CUUAGACAUGAGGAUCACCCAUGUGAGGAUAUGAUGCGAAUAAAGAAAGAAGAAAGCAUCAGAAGGCACAUAUG,545
9,AGUCUGAGAGGAUAUACAUGAAAAAAAAAAGUAAGAUCCCUACAUGAGGAUCACCCAUGUAGAAGGCUCUGACA [Ex2 Design 145: Sub-opt 9],29.4
10,AGCUAGUCAGGAUAUACGAACAAGAAAAAAGACGAGAACGGACAUGAGGAUCACCCAUGUAGAAGGGACUAGCA [Diamond 9],26.3
11,AAGAAGGUAGGAUAUACUAAAGAAACUAAUGCAAAGAUAAAACAUGAGGAUCACCCAUGUAGAAGGGCCAGAAA [JR_Exc002_Sub016],25.1
12,"AGUUGGCGAGGAUAUACAUGAGGAUCACCCAUGUAAAAUAAAUAAAAAAGGGAAGAAAGUAGAAGGCGCUGACA [73%, Moding Norbert Elias, 11]",175
13,AAUAAGACAGGAUAUACUAAAGAAAUGAAAAGAAAUAAAGAACAUGAGGAUCACCCAUGUAGAAGGGUCAAUAA ['Apepi],32.4
14,AGCUGGUCAGGAUAUGCGUGAAGAAUAAAACAAAUAACAACGCAGAAGGGACAUGAGGAUCACCCAUGUCAGCA [May 50],20.3
15,AAAAAGCUAGGAUAUACGAAAAAAAAGGGUAGAAAAAAAAAACAUGAGGAUCACCCAUGUAGAAGGAGCAAAAA [Mat - Exclusion 2 - Tesla mod - D34],103
16,AAUAAAGGAGGAUAUACUAAAGAAAUGAAAAGAAAUAAAGAACAUGAGGAUCACCCAUGUAGAAGGCCUAAUAA [Yaqub-Har],22.8
17,AACAAGUCAGGAUAUGCGAAAAGAAAAUAAGAUACACAAAAGCAGAAGGGACAUGAGGAUCACCCAUGUAAAUA [JR_Exc004_Sub011],33.1
18,AACAGUACAGGAUAUACAUGAGGAUCACCCAUGUAAAAUAAAUAAAAAUAAAAAGGAAGUAGAAGGGUACUGGA [Moding Maslow revisited (73) 18],26.4
19,AACAGGACAGGAUAUACAUGAGGAUCACCCAUGUGAGAAUUAAGUAGAUUACCACAGAGUAGAAGGGUCCUGGA [Ruby 96],99.5
20,GUGGAACAUGAGGAUCACCCAUGUGAGGAUAUAGGUUUUUGGGAAAAACUAGGAGAAACUAGAAGGCGCAAGAA [Exclusion 1.1],22
21,GGUUGGCGAGGAUAUACAUGAGGAUCACCCAUGUGAGAGAAAAAAGUGAGAAAGCAAAGUAGAAGGCGCUGACG [salish99-ex3-27],321
22,AAAAACUGAGGAUAUACAUGAGGAUCACCCAUGUGAAAGAACGAAAAACGAAAAGCAAGUAGAAGGCAGAAAAA [Ruby 77],26.1
23,GCUGUCCAAGGAUAUACAUGAGGAUCACCCAUGUGAGAGAAAAAAGUGAGAAAGAAAAGUAGAAGGUGGGUAGG [salish99-ex3-103],56.6
24,AACUGACAUGAGGAUCACCCAUGUCAGGAUAUGAUUUGACGAAAAAAAAUAAGUCAUAUCAGAAGGGACAUGGA [Design 84: Sub-opt WB],45
25,GCUGGCCAAGGAUAUACAUGAGGAUCACCCAUGUGAGAGAAAAAAGUGAGAAAGAAAAGUAGAAGGUGGGUAGG [salish99-ex3-111],56.9
26,AACAGUACAGGAUAUACAUGAGGAUCACCCAUGUGAAAGAAAAGUGGCGUACCACAAAGUAGAAGGGUACUGGA [Mat - Exclusion 3 - JL mod - D23],122
27,AAAAUGUGAGGAUAUGUACGAAAAAAUAAAAAAAUAAAAGUACAGAAGGCACAUGAGGAUCACCCAUGUGAAAA [EX4 396: Minimal 9],79.1
28,"AAAAAGAGAGGAUAUACAUGAGGAUCACCCAUGUAACAUUAAAUAAAUAAAAUAAAGUGUAGAAGGCUCAAAAA [65%, Moding Exclusion3-cac2, 24]",34.3
29,CUCAAGUCAGGAUAUUUAAGAAAAGAAGAGAAAGAAAAGAAAAAGAAGGGACAUGAGGAUCACCCAUGUAAGAA [EteRNA is fun!],41.3
30,ACAGUUACAGGAUAUACAAGGGUAACUUCAAAUAAACCUCUACAUGAGGAUCACCCAUGUAGAAGGGUAACUGA [Ex2 Design 200 (maybe): Random 16],21.7

# Tested on: MS2 coat protein
# Experiment: apparent KD of MS2 coat protein, switch ON state; designed switch direction (-1 OFF switch, 1 ON switch): 1; higher = weaker reporter binding
# Settings: FMN input: 0 or 200 uM; Eterna round: R93 (includes R88 designs)
# Procedure, shortened: as §1
row,Sequence,apparent KD of MS2 coat protein [nM]
1,AAAACACAUGAGGAUCACCCAUGUAGAAAUACGGGAGGAUAUGCUAAAACGAAAGACAAUGUAGAAGGCCUAAAAG [saturn 10],37.7
2,GGAAAACAUGAGGAUCACCCAUGUGAAAACGUGGGAGGAUAUCCAUGGAAACCAUACUGUGGAGAAGGCCCAUGUC [EteRNA is fun!],19.6
3,"AAAAAACAUGAGGAUCACCCAUGUAGAAAUAUGGGAGGAUAUACAAAGACGAAAGUCAAAGUAGAAGGCCUAAAAA [77%, Mat - Mod of Eli, 2]",18.2
4,ACUAUACAUGAGGAUCACCCAUGUUAGGUGGGACUAGGAUAUCAAAAGCCAGAGUAAGAAUGAGAAGGAGUAGAAA [JR_SS001_Sub301],32.8
5,AUAUAUAAAAGGUAGGAUAUUCUAAAAUAAACAUGAGGAUCACCCAUGUAAAGAAAGAAACUCAUGGAGAAGGACCAUAUAUAUA [ss2 5th modifying Eli's mod of Tesla],45.6
6,AAUACACAUAGUCAGGAUAUCAAAAAUAAGACAUGAGGAUCACCCAUGUAAUAAGUAAAAGUAAAUGAGAAGGGACAGGGUGACC [JR_SS002_Sub403],1560
7,GAAAAACAUGAGGAUCACCCAUGUAGAAAUAUGGGAGGAUAUACGAAGACGAAAGUCAAAGUAGAAGGCCUAAAAG [Mat - Same State 1 - Eli mod - D22],28
8,GCUCCAGCUAGCAAGGAUAUGUAGGAUGCUACAUGAGGAUCACCCAUGUGCUGAAAUAAGUCCCGGCAGAAGGUGUGACUGGAGA [Laedtear],16.8
9,AGAAAACAUGAGGAUCACCCAUGUAGAAAUAUGGGAGGAUAUACAAAGACGAAAGUCAAAGUAGAAGGCCUAAAAG [Mat - Same State 1 - Eli mod - 35],23.2
10,AGGAGACAUGAGGAUCACCCAUGUAGAAGGAUGGGAGGAUAUACAAAGACGAGAGUCAGAGUAGAAGGCCUAGGAA [salish99-ss1-182(!)],19.7
11,GGCAGUCCGACACAGGAUAUGGGUAACGAAACAUGAGGAUCACCCAUGUGGAAACAUCGGGUUGCCUAGAAGGGUGGAAAGAUUG [Xeti],26.4
12,AUAAAUAAAAGCAAGGAUAUCCAAAAGAAAACAUGAGGAUCACCCAUGUAAAAGAAAAUAAAAUGGGAGAAGGUGCAAAAUAAAU [viburnum 8],14.8
13,AGAAAUAAAACGAAGGAUAUCCAAAAUAAAACAUGAGGAUCACCCAUGUAAAAGAAAAUAAAGUGGGAGAAGGUCGAAAAUAAGA [Designing denovo 15],12
